Assay [1] addresses recombinant soluble PSMA (rsPSMA) (human) (UniProt Q04609). The assay is described as follows: Biacore, rsPSMA.
For assay [2], the target named is prostate specific membrane antigen (PSMA), full-length human (human) (UniProt Q04609). Kind of assay: average over PSMA-expressing cells.
Assay [3] has the same target. The assay is described as follows: fraction of radiolabeled mAb bound, PSMA-3T3 cells.
Assay [4] has the same target. The assay is described as follows: cell-based or functional assay.

Where “and” joins values, the source holds several entries; their conditions need not be identical. Equal values may be shown once.

What is called Kd is the constant that tells how readily two partners part at equilibrium.

prostate specific membrane antigen (PSMA), full-length human (human), sequence (Q04609 whole entry): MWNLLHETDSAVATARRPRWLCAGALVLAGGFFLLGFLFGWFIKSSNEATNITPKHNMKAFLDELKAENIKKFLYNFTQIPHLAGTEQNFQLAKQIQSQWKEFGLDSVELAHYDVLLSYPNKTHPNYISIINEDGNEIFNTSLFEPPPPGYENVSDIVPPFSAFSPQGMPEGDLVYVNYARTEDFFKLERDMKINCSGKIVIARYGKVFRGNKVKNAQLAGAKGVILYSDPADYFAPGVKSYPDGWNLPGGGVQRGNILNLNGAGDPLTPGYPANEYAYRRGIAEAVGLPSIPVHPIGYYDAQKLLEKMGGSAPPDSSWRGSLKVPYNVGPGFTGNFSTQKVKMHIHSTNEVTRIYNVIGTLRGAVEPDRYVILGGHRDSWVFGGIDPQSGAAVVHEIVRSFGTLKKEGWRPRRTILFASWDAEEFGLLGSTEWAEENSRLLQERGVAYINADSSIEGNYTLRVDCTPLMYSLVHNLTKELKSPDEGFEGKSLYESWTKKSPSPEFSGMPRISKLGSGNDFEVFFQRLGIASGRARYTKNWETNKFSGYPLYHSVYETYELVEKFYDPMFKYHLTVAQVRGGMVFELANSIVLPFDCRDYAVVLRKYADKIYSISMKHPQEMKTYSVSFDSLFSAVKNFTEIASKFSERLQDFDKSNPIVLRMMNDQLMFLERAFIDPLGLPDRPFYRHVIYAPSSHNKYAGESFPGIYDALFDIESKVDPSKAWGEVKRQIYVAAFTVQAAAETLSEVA
recombinant soluble PSMA (rsPSMA) (human), sequence (Q04609 44-750): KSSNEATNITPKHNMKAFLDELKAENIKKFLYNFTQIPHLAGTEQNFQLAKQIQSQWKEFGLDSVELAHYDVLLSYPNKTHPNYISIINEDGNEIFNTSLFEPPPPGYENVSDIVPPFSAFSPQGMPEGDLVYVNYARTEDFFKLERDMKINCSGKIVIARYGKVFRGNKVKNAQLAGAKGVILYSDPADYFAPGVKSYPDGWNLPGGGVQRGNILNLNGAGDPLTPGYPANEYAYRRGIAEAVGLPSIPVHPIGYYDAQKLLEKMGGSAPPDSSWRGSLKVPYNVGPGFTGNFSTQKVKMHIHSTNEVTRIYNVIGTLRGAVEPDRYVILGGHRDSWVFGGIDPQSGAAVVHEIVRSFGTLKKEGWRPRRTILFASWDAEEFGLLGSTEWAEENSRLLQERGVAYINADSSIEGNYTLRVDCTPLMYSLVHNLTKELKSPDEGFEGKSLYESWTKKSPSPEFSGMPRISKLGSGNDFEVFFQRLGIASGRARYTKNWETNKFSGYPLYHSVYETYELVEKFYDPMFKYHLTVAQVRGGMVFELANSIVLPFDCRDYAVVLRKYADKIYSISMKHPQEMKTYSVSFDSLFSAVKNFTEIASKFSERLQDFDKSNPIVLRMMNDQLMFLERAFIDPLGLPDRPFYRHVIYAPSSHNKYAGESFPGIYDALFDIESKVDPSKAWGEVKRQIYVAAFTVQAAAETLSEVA

For the substance Control (Table 6, Biacore) (antibody), the Kd in assay [1] worked out at 0.634 nM. Regarding “^111In radiolabeled CHX-A″-DTPA mJ591 (antibody)”, the Immunoreactivity (%) was 56.7% in assay [2]; 58.5% and 54.9% in assay [3]. In assay [4], mAb J591 (murine) (antibody) returned an LD50, immunotoxin cytotoxicity (Mab-Zap saporin secondary) on C4-2 cells of 88.2 pM and an LD50, immunotoxin cytotoxicity (Mab-Zap saporin secondary) on PSMA-3T3 cells of 89 pM.

Values taken from patent publication US20080286284A1.
